Laboratory results taken from paper PMC7938805, “Biophysical and biochemical properties of Deup1 self-assemblies: a potential driver for deuterosome formation during multiciliogenesis” (Biology Open, 2021).

B1: mScarlet I-Deup1 N-terminus fragment (1-466 a.a.) (domain or fragment, mouse, UniProt Q7M6Y5-1 1-466, looked up)
chain: MENQAHTTAGASPCEAELQELMEQIDIMVSNKKLDWERKMRALETRLDLRDQELANAQTCLDQKGQEVGLLRQKLDSLEKCNLVMTQNYEGQLQTLKAQFSKLTSNFEKLRLHQMKQNQIHRKESSSKEELPFELSSLNQKLEEFRAKSREWDKQEVLYQTHLVSLDAQQKLLSEKCSQFQKQAQNYQTQLNGKKQCAEDSSSEIPRLVCESDPGCEATQRDEFIIEKLKSAVSEIALSRNKLQDENQKLLQELKMYQRQCQAMEAGLSEVKSELQSRDDLLRIIEMERLHLHRELLRMGEVQTAQDNRKRVESSYSPSPKEAERKRKELFPMVSDQPNHEKELSKMRSQLYQEEGLCSEQERLRSEISELTQELHQKEVTIATVMKKAALLERQLKIELEIKERMLAKQQVSDRRYKAVRTENTHLKGMMGDLDPARYLAVDLSNKKHSQCTSINKLEYENERLR
notes: Deuterosome protein 1 (Deup1), mouse, longer isoform NP_001360846, residues 1-466, with multiple coiled coil domains; source: E. coli BL21 gold (DE3), purified (Ni-NTA, glutathione sepharose, eluted with PreScission and TEV protease); not shown: GST, N-terminal, cleaved; mScarlet I, N-terminal, kept; His6, C-terminal, cleaved
B2: mScarlet I-Deup1 (deuterosome protein 1, mouse, longer isoform) (natural protein, UniProt Q7M6Y5-1 1-601, looked up)
chain: MENQAHTTAGASPCEAELQELMEQIDIMVSNKKLDWERKMRALETRLDLRDQELANAQTCLDQKGQEVGLLRQKLDSLEKCNLVMTQNYEGQLQTLKAQFSKLTSNFEKLRLHQMKQNQIHRKESSSKEELPFELSSLNQKLEEFRAKSREWDKQEVLYQTHLVSLDAQQKLLSEKCSQFQKQAQNYQTQLNGKKQCAEDSSSEIPRLVCESDPGCEATQRDEFIIEKLKSAVSEIALSRNKLQDENQKLLQELKMYQRQCQAMEAGLSEVKSELQSRDDLLRIIEMERLHLHRELLRMGEVQTAQDNRKRVESSYSPSPKEAERKRKELFPMVSDQPNHEKELSKMRSQLYQEEGLCSEQERLRSEISELTQELHQKEVTIATVMKKAALLERQLKIELEIKERMLAKQQVSDRRYKAVRTENTHLKGMMGDLDPARYLAVDLSNKKHSQCTSINKLEYENERLRSDLAKLHGNGKAAWPNQSSYGEAGAYVFQSQLKTETSGDRISQDCELNRSPTPLSPLPFQTKEMASPLVGDNEVLALSPPDISFRASLAAQHFLMEEERRAKELEKLLNTHIDELQRHTEFTLNKYTKLKQSRHI
notes: Deuterosome protein 1 (Deup1), mouse, longer isoform NP_001360846, cloned from a mouse lung cDNA library with primers from the start to the stop codon; 601 residues by the fragment limits; Expressed from pGEX 6p-1 modified with a C-terminal 6xHis tag and a TEV site; also called mS-Deup1; full-length Deup1; source: E. coli BL21 gold (DE3), purified (Ni-NTA, glutathione sepharose, eluted with …)

Biological target: the molecule itself
Assay: fluorescence microscopy of assemblies of purified protein; purified fluorescent protein (100 nM where stated) in 50 mM Tris pH 7.5, 150 mM NaCl, 1.5% glycerol with PEG8000 (up to 6%) or BSA 300 mg/ml as crowding agent, RT 10 min, confocal imaging

Protein | binding result
B1 | binds
B2 | binds
